# Reference: PMC3481350
# Molecular target: Deg2 protease (Arabidopsis thaliana), mature Deg2 (Arabidopsis thaliana)
# Assay: SEC + other: dynamic light scattering
substance,measurement,value
"Deg2 protease (Arabidopsis thaliana), mature Deg2 (enzyme)",stoichiometry N,6
